Literature values, collected in publication PMC7365847.
Like-named read-outs stand apart in the source and are kept apart here. One block for each substance: values may come before it.

Tests used:
IL-18BP (Homo sapiens) = IL-18BP (Homo sapiens) (UniProt O95998)
IL-1Ra (Homo sapiens) = IL-1Ra (Homo sapiens) (UniProt P18510)
IL-1β (Homo sapiens) [1] = target: IL-1β (Homo sapiens) (UniProt P01584)
IL-1β (Homo sapiens) [2] = target: IL-1β (Homo sapiens) (UniProt P01584); remark: listed apart in the source

IL-1β (Homo sapiens), sequence (P01584 117-269): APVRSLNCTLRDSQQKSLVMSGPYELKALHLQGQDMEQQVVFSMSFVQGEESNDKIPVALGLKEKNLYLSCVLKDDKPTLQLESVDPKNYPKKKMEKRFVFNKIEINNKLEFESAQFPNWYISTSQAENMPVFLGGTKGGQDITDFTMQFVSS
IL-18, sequence (Q14116 37-193): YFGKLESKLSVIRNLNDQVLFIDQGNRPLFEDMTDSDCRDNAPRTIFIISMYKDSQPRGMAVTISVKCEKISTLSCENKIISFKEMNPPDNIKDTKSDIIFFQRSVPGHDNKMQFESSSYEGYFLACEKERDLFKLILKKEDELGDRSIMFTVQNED
IL-18BP (Homo sapiens), sequence (O95998 31-194): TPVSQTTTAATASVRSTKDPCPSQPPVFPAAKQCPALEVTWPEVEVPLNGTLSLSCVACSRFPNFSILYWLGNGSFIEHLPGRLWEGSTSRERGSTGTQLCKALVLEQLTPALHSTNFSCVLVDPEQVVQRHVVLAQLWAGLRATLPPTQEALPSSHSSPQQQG
sIL-1R2/sIL-1R3 complex, sequence (P27930 14-398): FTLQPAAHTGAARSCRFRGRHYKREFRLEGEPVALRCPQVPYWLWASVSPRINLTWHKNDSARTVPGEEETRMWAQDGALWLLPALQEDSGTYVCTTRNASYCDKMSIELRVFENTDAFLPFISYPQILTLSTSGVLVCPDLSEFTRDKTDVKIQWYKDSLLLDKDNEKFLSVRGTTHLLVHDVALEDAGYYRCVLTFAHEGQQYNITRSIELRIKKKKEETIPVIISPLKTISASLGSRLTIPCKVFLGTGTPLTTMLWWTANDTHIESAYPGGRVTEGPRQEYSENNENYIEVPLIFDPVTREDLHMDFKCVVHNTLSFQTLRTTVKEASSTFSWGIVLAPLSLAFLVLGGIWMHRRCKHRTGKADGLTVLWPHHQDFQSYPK
sIL-1R2/sIL-1R3 complex, sequence (Q9NPH3 21-570, further chain): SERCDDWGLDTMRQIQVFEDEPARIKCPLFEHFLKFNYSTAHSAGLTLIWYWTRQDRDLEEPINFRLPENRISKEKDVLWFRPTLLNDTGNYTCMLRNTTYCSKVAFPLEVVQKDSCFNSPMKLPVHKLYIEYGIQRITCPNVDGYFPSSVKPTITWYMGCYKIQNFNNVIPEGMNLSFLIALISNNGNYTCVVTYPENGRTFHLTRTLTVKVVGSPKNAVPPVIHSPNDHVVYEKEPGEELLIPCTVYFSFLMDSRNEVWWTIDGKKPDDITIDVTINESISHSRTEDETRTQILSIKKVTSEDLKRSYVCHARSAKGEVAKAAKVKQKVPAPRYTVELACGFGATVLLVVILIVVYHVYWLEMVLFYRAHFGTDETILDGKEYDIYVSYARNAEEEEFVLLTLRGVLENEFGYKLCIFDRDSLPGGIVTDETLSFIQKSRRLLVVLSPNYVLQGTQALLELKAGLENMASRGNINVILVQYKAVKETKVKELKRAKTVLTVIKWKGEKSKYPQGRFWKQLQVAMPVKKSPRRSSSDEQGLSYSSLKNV
IL-1Ra (Homo sapiens), sequence (P18510 26-177): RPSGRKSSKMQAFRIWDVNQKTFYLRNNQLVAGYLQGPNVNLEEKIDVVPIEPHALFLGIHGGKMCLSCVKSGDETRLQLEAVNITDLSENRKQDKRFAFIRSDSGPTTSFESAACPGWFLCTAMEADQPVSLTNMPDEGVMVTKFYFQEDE

Substance: IL-18 (from UniProt Q14116)
Kd (IL-18BP (Homo sapiens)): 0.4 nM

Kd (IL-1Ra (Homo sapiens)): 25000 nM
Kd (IL-1β (Homo sapiens) [1]): 2.7 nM
Substance: sIL-1R2 (from UniProt P27930)

Kd (IL-1β (Homo sapiens) [2]): 0.0056 nM
Substance: sIL-1R2/sIL-1R3 complex (from UniProt P27930)
